# Reference: PMC10511499
# B1: full-length yeast Pac1 with C-terminal FLAG-SNAPf [S. cerevisiae] / yeast Ndl1 coiled-coil domain (Ndl1^CC, residues 2-132) [S. cerevisiae] (parent)
# chain 1: MTNWQQQLPLTDTQKNELDKSVLRYLNWNYKQTVRHEHAQDYESVRHAIVTLSGFLLQESVDRQEFISNNDTSNESMVDIDELLLPKKWNSIVRLQKKIIELEQNTETLVSQIKDLNTQVSELAQFKPTTSNGTSAHNVLKWIPRNLPSCLINVESSVTSVKLHPNLPIVFVATDHGKLYAFDLFNYTIPLASLQSHTKAITSMDVLFTNYTNSSKKNYLVIVTASKDLQIHVFKWVSEECKFQQIRSLLGHEHIVSAVKIWQKNNDVHIASCSRDQTVKIWDFHNGWSLKTFQPHSQWVRSIDVLGDYIISGSHDTTLRLTHWPSGNGLSVGTGHEFPIEKVKFIHFIEDSPEIRFRTPSTDRYKNWGMQYCVSASRDRTIKIWEIPLPTLMAHRAPIPNPTDSNFRCVLTLKGHLSWVRDISIRGQYLFSCADDKSVRCWDLNTGQCLHVWEKLHTGFVNCLDLDVDFDSNVTPRQMMVTGGLDCKSNVFMR
# chain 2: VPNLDLETAIQIISSLETQLSELEGATKEYENDLEQVISKLKSDLLESQQQNKCNKKQITDLEIQVDELENENIQLRNKIETLQLESDRRLERNVLLEHELLDTKEALQKLRVSKEEATSGETRRNTRSLP
# B2: LIS1, wild type, as used in mass photometry (construct not told) [human] / human Ndel1 coiled-coil domain (Ndel1^CC, residues 1-195) [human] (parent)
# chain 1: MVLSQRQRDELNRAIADYLRSNGYEEAYSVFKKEAELDVNEELDKKYAGLLEKKWTSVIRLQKKVMELESKLNEAKEEFTSGGPLGQKRDPKEWIPRPPEKYALSGHRSPVTRVIFHPVFSVMVSASEDATIKVWDYETGDFERTLKGHTDSVQDISFDHSGKLLASCSADMTIKLWDFQGFECIRTMHGHDHNVSSVAIMPNGDHIVSASRDKTIKMWEVQTGYCVKTFTGHREWVRMVRPNQDGTLIASCSNDQTVRVWVVATKECKAELREHEHVVECISWAPESSYSSISEATGSETKKSGKPGPFLLSGSRDKTIKMWDVSTGMCLMTLVGHDNWVRGVLFHSGGKFILSCADDKTLRVWDYKNKRCMKTLNAHEHFVTSLDFHKTAPYVVTGSVDQTVKVWECR
# chain 2: MDGEDIPDFSSLKEETAYWKELSLKYKQSFQEARDELVEFQEGSRELEAELEAQLVQAEQRNRDLQADNQRLKYEVEALKEKLEHQYAQSYKQVSVLEDDLSQTRAIKEQLHKYVRELEQANDDLERAKRATIVSLEDFEQRLNQAIERNAFLESELDEKESLLVSVQRLKDEARDLRQELAVRERQQEVTRKSA
# Variants of: B1
# Assay: mass photometry
# Conditions: with yeast Ndl1 coiled-coil domain (Ndl1^CC, residues 2-132) [S. cerevisiae]; Proteins mixed at a 1:1 molar ratio
row,Variant,screen value [%]
1,chain 1 R275A R301A R378A W419A K437A,0

# Variants of: B2
# Assay: mass photometry
# Conditions: with human Ndel1 coiled-coil domain (Ndel1^CC, residues 1-195) [human]; Proteins mixed at a 1:1 molar ratio
row,Variant,screen value [%]
1,chain 1 W340A,0
2,chain 1 R316A,5
